Assay results published in patent publication US20230322924A1 (Janssen / Centocor, published 2023).

Experiments:
Human CD33 ECD-HSA [1] = molecular target: T1, Human CD33 ECD-HSA (human); assay: SPRi off-rate screen (IBIS MX96)
T1 construct: CD33 ECD fused at the C-terminus to monomeric HSA (C58S) and a six-histidine tag; also called C33W2; huCD33 ECD-HSA

Human CD33-C2-HSA = molecular target: T2, Human CD33-C2-HSA (human); assay: SPRi off-rate screen (IBIS MX96)
T2 construct: C2 domain of human CD33 fused to HSA; also called C33W4; huCD33-C2-HSA

Cyno CD33 full length = molecular target: T3, Cyno CD33 full length (cynomolgus monkey); assay: flow cytometry on HEK293F cells expressing cyno CD33
T3 construct: also called cyCD33

Human CD33 full length = molecular target: T4, Human CD33 full length (human, UniProt P20138 18-364); assay: flow cytometry on HEK293F cells expressing human CD33
T4 construct: also called huCD33
T4 sequence (P20138 18-364 limits assumed): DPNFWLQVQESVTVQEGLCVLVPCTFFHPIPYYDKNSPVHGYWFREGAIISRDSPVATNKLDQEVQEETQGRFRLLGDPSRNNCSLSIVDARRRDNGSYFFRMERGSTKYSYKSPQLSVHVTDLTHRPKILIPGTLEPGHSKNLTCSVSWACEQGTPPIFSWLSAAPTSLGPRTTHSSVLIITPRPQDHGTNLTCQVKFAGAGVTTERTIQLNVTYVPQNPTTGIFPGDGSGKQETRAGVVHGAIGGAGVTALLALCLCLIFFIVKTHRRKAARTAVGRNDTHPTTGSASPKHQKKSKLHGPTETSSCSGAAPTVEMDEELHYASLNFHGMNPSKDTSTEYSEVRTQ

Human CD33 ECD-HSA [2] = molecular target: T1, Human CD33 ECD-HSA; assay: ProteOn SPR, mAb captured on anti-human Fc, antigen as analyte
Procedure: (§1) The panel of mAbs was then further characterized for full affinity analysis as well as epitope binning. The binding of anti-CD33 mAbs to recombinant human CD33 ECD-HSA (C33W2) and cyno CD33 ECD-HSA (C33W1) was measured by ProteOn SPR (Bio-Rad). […] Different mAbs were captured on the anti-human Fc IgG surface at 0.25 or 0.5 μg/ml (160-300 RU) in vertical ligand orientation, with the 6th ligand channel as no ligand surface control. Human and cyno CD33-HSA proteins at 0.3 μM concentration in 3-fold dilution series of 5 concentrations flew in as analyte to bind to captured mAbs in the horizontal orientation. A buffer sample was also injected in the 6th channel to monitor the dissociation of captured mAb and baseline stability. […] The raw biding data were processed by double referencing after subtracting the response data from: 1) the inter-spot to correct for the non-specific interactions between the Ag and the empty chip surface; 2) the buffer channel to correct for baseline drifting due to the dissociation of captured mAb surface over time. The processed data at all antigen concentrations for each mAb were globally fit to a 1:1 simple Langmuir binding model to extract estimates of the kinetic (kₒₙ, koff) and affinity (Kd) constants.

Cyno CD33 ECD-HSA = molecular target: T5, Cyno CD33 ECD-HSA (cynomolgus monkey); assay: as above
T5 construct: Cyno CD33 ECD fused to HSA and a six-histidine tag; also called C33W1
Procedure: as §1

koff (Human CD33 ECD-HSA [1]): 1.29e-05 s⁻¹
koff (Human CD33-C2-HSA): 6.68e-05 s⁻¹
MFI at 0 nM (background) (Cyno CD33 full length): 125 MFI
MFI at 0.6 nM (Cyno CD33 full length): 1730 MFI
MFI at 6 nM (Cyno CD33 full length): 7270 MFI
MFI at 60 nM (Cyno CD33 full length): 15100 MFI
MFI at 0 nM (background) (Human CD33 full length): 150 MFI
MFI at 0.6 nM (Human CD33 full length): 15700 MFI
MFI at 6 nM (Human CD33 full length): 101000 MFI
MFI at 60 nM (Human CD33 full length): 237000 MFI
Kd (Human CD33 ECD-HSA [2]): 0.0302 nM
koff (Human CD33 ECD-HSA [2]): 4.29e-05 s⁻¹
kon (Human CD33 ECD-HSA [2]): 1.42e+06 M⁻¹ s⁻¹
Kd (Cyno CD33 ECD-HSA): 0.433 nM
koff (Cyno CD33 ECD-HSA): 0.00065 s⁻¹
kon (Cyno CD33 ECD-HSA): 1.5e+06 M⁻¹ s⁻¹
B1: C33B912 (antibody, V domains shown)
VH: EVQLVESGGGLVQPGRSLRLSCAASGFTFDDYAMHWVRQAPGKGLEWVSGIGWSGGSIVYADSVKGRFTISRDNAKNSLYLQMNSLRAEDTALYYCAKDSPYGDFFDYWGQGTLVTVSS
VL: DIVMTQSPDSLAVSLGERATINCKSSQTVFYSSNNKNYLAWYQQKPGQPPKLLISWASTRKSGVPDRFSGSGSGTDFTLTVSSLQAEDVAVYYCQHYYSTPYTFGQGTKLEIK
notes: OMNIMouse-derived anti-CD33 mAb; also called C33H252/C33L118; C33F550
